This note sets out measurements from US20030198640A1 (Human Genome Sciences, published 2003).

B2: human LIGHT protein, natural secreted form (aa 83-240), E. coli (ligand)
chain: LIQERRSHEVNPAAHLTGANSSLTGSGGPLLWETQLGLAFLRGLSYHDGALVVTKAGYYYIYSKVQLGGVGCPLGLASTITHGLYKRTPRYPEELELLVSQQSPCGRATSSSRVWWDSSFLGGVVHLEAGEEVVVRVLDERLVRLRDGTRSYFGAFMV
notes: also called soluble LIGHT
B3: full-length human TR6 (without Fc), baculovirus/Sf9 (receptor)
chain: VAETPTYPWRDAETGERLVCAQCPPGTFVQRPCRRDSPTTCGPCPPRHYTQFWNYLERCRYCNVLCGEREEEARACHATHNRACRCRTGFFAHAGFCLEHASCPPGAGVIAPGTPSQNTQCQPCPPGTFSASSSSSEQCQPHRNCTALGLALNVPGSSSHDTLCTSCTGFPLSTRVPGAEECERAVIDFVAFQDISIKRLQRLLQALEAPEGWGPTPRAGRAALQLKLRRRLTELLGAQDGALLVRLLQALRVARMPGLERSVRERFLPVH
notes: also called soluble TR6; non-Fc form of TR6
B5: full length TNF-gamma-beta expressed on the cell surface (HEK293F stable transfectants; cells transfected with TNF-gamma-β) (ligand)
chain: MAEDLGLSFGETASVEMLPEHGSCRPKARSSSARWALTCCLVLLPFLAGLTTYLLVSQLRAQGEACVQFQALKGQEFAPSHQQVYAPLRADGDKPRAHLTVVRQTPTQHFKNQFPALHWEHELGLAFTKNRMNYTNKFLLIPESGDYFIYSQVTFRGMTSECSEIRQAGRPNKPDSITVVITKVTDSYPEPTQLLMGTKSVCEVGSNWFQPIYLGAMFSLQEGDKLMVNVSDISLVDYTKEDKTFFGAFLL
notes: also called TNF-gamma-beta expressing cells

Experiment [1] concerns the target T1, TNF-gamma-β polypeptide (amino acid residues 72-251 of SEQ ID NO:2), untagged recombinant protein (human, UniProt O95150 72-251).
T1 construct: also called TL1β
T1 sequence: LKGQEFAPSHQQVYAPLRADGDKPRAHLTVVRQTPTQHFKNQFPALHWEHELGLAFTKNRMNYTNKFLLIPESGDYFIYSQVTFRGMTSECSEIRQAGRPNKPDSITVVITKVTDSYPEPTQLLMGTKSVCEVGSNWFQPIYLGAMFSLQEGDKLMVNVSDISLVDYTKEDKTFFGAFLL
Description: BIAcore, control receptor surface. The method, then:
(§1) TNFR-Fc were covalently immobilized to the BIAcore sensor chip (CM5 chip) via amine groups using N-ethyl-N′-(dimethylaminopropyl) carbodiimide/N-hydroxysuccinimide chemistry. […] The amount of bound protein was determined during washing of the flow cell with HBS buffer (10 mM HEPES, pH 7.4, 150 mM NaCl, 3.4 mM EDTA, 0.005% Surfactant P20). The flow cell surface was regenerated by displacing bound protein by washing with 20 microliters of 10 mM glycine-HCl, pH 2.3. For kinetic analysis, the on and off rates were determined using the kinetic evaluation program in BIAevaluation 3 software using a 1:1 binding model and the global analysis method.
On the technique in general: Surface plasmon resonance follows binding to a sensor surface in real time, without labels.

The target in experiment [2] is T2, TR6-Fc (full-length human TNFR-6 alpha, SEQ ID NO:6 aa 1-300, fused to the Fc domain of human IgG1) (human, UniProt O95407 30-300).
T2 construct: also called TNFR-6 alpha Fc fusion protein; DcR3-Fc; not shown: Fc domain of human IgG1
T2 sequence: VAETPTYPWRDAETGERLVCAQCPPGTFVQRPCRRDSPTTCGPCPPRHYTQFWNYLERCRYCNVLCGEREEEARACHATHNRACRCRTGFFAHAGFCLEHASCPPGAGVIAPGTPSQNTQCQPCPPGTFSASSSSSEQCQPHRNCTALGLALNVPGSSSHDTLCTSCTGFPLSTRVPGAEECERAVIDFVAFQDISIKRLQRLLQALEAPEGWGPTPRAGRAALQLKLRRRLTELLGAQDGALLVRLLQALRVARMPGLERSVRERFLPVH
The experiment in a line: BIAcore; TR6-Fc form. The method, then: (§2) The amount of bound protein was determined during washing of the flow cell with HBS buffer (10 mM HEPES, pH 7.4, 150 mM NaCl, 3.4 mM EDTA, 0.005% Surfactant P20). The flow cell surface was regenerated by washing off the bound proteins with 20 microliters of 10 mM glycine-HCl pH 2.3. […] The on- and off-rates were determined according a kinetic evaluation program in the BiaEvaluation 3 software using a 1:1 binding model and the global analysis method.
(§3) We determined the kinetics of binding of LIGHT to both the Fe and non-Fc versions of TR6 according to BIAcore analysis.

The target in experiment [3] is B3. Description: BIAcore; non-Fc TR6.
Experiment [4] addresses T3, TR2-Fc (extracellular domain of human TR2, aa 1-192, fused to the Fc domain of human IgG1) (human, UniProt Q92956 39-192).
T3 construct: range 1-192; also called HveA-Fc; not shown: Fc domain of human IgG1
T3 sequence (looked up): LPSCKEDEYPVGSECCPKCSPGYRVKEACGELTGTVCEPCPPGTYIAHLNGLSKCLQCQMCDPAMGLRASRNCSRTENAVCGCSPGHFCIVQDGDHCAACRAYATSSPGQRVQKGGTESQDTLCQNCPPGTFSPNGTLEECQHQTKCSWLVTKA
The experiment in a line: BIAcore, TR2-Fc immobilised; TR2-Fc, not TR6.

Experiment [5] addresses B5. Description: flow cytometry competition on HEK293F cells expressing TNF-gamma-beta; competitor of DR3-Fc. On the procedure:
(§4) These cells were used to screen the Fc-fusion form of the extracellular domain of TNFR family members, including TNFR1, Fas, HveA, DR3, DR4, DR5, DR6, DcR1, DcR2, TR6, OPG, RANK, AITR, TAC1, CD40, and OX40. […] TR6 has been previously described as a decoy receptor (Pitti et al., Nature 396:699-703 (1998); Yu et al., J. Biol. Chem. 274:13733-6 (1999)) capable of competing with Fas and HveA for binding of FasL and LIGHT, respectively.
(§5) One million cells, in 0.1 ml of FACS buffer (PBS, 0.1% BSA, 0.1% NaN₃), were incubated with 0.1-1 microgram of protein or antibody at RT for 15 min. The cells were washed with 3 ml of FACS buffer, reacted with biotinylated primary antibody, and stained with PE-conjugated secondary antibody at RT for 15 min. Cells were then washed again, resuspended in 0.5 microgram/ml of propidium iodide, and live cells were gated and analyzed on a FACScan using the CellQuest software (BD Biosciences).
On the technique in general: A flow cytometer gives signals particle by particle.

Experiment [6] deals with B2. The experiment in a line: BIAcore. The method, then:
as §2, §3

For experiment [7], the target named is T1, TNF-gamma-β polypeptide (amino acid …). Description: BIAcore, DR3-Fc immobilised, three batches of TNF-gamma-beta; DR3-Fc. On the procedure:
as §1

For experiment [8] the target is unchanged. The experiment in a line: BIAcore, DR3-Fc immobilised, average of three batches; DR3-Fc, average of three batches. The method, then:
as §1

Experiment [9] concerns the target T4, DR6 (Fc-fusion form of the extracellular domain) (UniProt O75509 42-349, limits assumed).
T4 construct: extracellular domain; not shown: Fc part
T4 sequence (looked up): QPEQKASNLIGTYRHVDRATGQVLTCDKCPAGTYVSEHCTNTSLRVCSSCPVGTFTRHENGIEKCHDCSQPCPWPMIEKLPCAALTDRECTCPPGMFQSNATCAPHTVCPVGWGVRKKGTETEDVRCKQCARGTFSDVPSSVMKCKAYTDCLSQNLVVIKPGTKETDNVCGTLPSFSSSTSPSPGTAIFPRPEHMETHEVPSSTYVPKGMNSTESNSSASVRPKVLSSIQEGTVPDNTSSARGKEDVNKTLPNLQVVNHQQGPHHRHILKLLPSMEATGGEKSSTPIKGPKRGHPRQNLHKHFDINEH
The experiment in a line: flow cytometry on HEK293F cells expressing full length TNF-gamma-beta. The method, then: as §4, §5

The target in experiment [10] is T2, TR6-Fc (full-length human TNFR-6 alpha, …). The experiment in a line: FACS on transfected cells.
The target in experiment [11] is T5, FLAG-tagged soluble form of TNF-gamma-beta (aa 72-251) (human, UniProt O95150 72-251).
T5 construct: also called FLAG-TL1β; FLAG-TNF-gamma-beta; not shown: FLAG tag of the pFLAG-CMV-1 vector at the amino terminus
T5 sequence: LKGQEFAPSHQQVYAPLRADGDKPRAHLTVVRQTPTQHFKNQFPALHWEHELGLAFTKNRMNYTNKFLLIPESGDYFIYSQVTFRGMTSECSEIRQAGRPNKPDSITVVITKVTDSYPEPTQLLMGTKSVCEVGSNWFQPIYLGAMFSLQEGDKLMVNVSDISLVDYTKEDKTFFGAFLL
Description: co-immunoprecipitation with protein A-Sepharose, anti-Flag blot. The text has this:
The beads were then precipitated and washed extensively with PBST buffer (PBS, 0.5% Triton X-100) before boiled in SDS-sample buffer. Proteins were resolved on 4-20% Tris-Glycine gels (NOVEX), transferred to nitrocellulose membranes, and blotted with anti-Flag M2 monoclonal antibody (1 microgram/ml, Sigma) and horseradish peroxidase (HRP)-conjugated goat anti-mouse IgG antibody (0.5 microgram/ml).

In experiment [12] the target is B5. Description: flow cytometry on HEK293F cells expressing full length TNF-gamma-beta. The method, then:
as §4, §5

Experiment [13] has as its target T2, TR6-Fc (full-length human TNFR-6 alpha, …). The experiment in a line: flow cytometry on 293 cells overexpressing LIGHT. On the procedure:
Cells were incubated with Fc-fusion proteins in 100 ul FACS buffer (d-PBS with 0.1% sodium azide and 0.1% BSA) for 15-20 minutes at room temperature. The cells were washed once and reacted with goat F (ab)₂ anti-human IgG (Southern Biotechnology, Birmingham, Ala.) for 15 minutes at room temperature. After wash, the cells were resuspended in 0.5 ug/ml propidium iodide, and live cells were gated and analyzed on a FACScan (BD Biosciences, Mansfield, Mass.).
This was tested on 293 cells overexpressing LIGHT according to flow cytometry.

Experiment [14] addresses B3. Description: flow cytometry competition on activated human T cells.

B1: BCMA-Fc (Fc fusion, human, UniProt Q02223 1-54, looked up)
chain: MLQMAGQCSQNEYFDSLLHACIPCQLRCSSNTPPLTCQRYCNASVTNSVKGTNA
notes: not shown: Fc part
With B1, the binding result in experiment [1] was “no binding (tested: 370 nM (top of the range 3-370 nM))”.
With B2, in experiment [2], the dissociation constant Kd (commonly the equilibrium constant for the complex coming apart) was found to be 5.46 nM; the koff – broadly, the rate constant with which the complex falls apart – came to 0.0023 s⁻¹; the kon (commonly the second-order rate constant of association) stood at 422000 M⁻¹ s⁻¹. In [3], this molecule gave a Kd of 14.3 nM, a koff of 0.00483 s⁻¹ and a kon of 338000 M⁻¹ s⁻¹. The same molecule yielded a dissociation constant Kd in experiment [4] of 4.56 nM.
Regarding B3, the “molar ratio TR6 to DR3-Fc at which no DR3-Fc binding was detected” value in [5] is 2 molar ratio (TR6:DR3-Fc). The “fold off rate against TR6-Fc” value in experiment [6] is approximately 2 fold.

B4: DR3-Fc (extracellular domain of human DR3, aa 1-199, fused at its C-terminus to the Fc domain of human IgG1) (Fc fusion)
chain: QGGTRSPRCDCAGDFHKKIGLFCCRGCPAGHYLKAPCTEPCGNSTCLVCPQDTFLAWENHHNSECARCQACDEQASQVALENCSAVADTRCGCKPGWFVECQVSQCVSSSPFYCQPCLDCGALHRHTRLLCSRRDTDCGTCLPGFYEHGDGCVSCPTSTLGSCPERCAAVCGWRQ
notes: not shown: Fc domain of human IgG1
On to B4, for which, in [7], the off-rate constant (koff) was determined as 0.00413 s⁻¹ and the kon is 639000 M⁻¹ s⁻¹. In addition, the Kd in experiment [8] is 6.45 nM.
B5: the binding result in experiment [9] was “no binding”; in experiment [10], “binds”.

B6: TACI-Fc (extracellular domain of human TACI, aa 1-159, fused to the Fc domain of human IgG1) (Fc fusion, UniProt O14836 1-159, looked up)
chain: MSGLGRSRRGGRSRVDQEERFPQGLWTGVAMRSCPEEQYWDPLLGTCMSCKTICNHQSQRTCAAFCRSLSCRKEQGKFYDHLLRDCISCASICGQHPKQCAYFCENKLRSPVNLPPELRRQRSGEVENNSDNSGRYQGLEHRGSEASPALPGLKLSADQ
notes: range 1-159; also called TAC1 (Fc-fusion); not shown: Fc domain of human IgG1
On to B6, for which the binding result in experiment [11] and in experiment [12] was “no binding” each time.

B7: full-length human LIGHT on cells (293F stable transfectants; endogenous LIGHT on activated human T cells) (ligand)
chain: MEESVVRPSVFVVDGQTDIPFTRLGRSHRRQSCSVARVGLGLLLLLMGAGLAVQGWFLLQLHWRLGEMVTRLPDGPAGSWEQLIQERRSHEVNPAAHLTGANSSLTGSGGPLLWETQLGLAFLRGLSYHDGALVVTKAGYYYIYSKVQLGGVGCPLGLASTITHGLYKRTPRYPEELELLVSQQSPCGRATSSSRVWWDSSFLGGVVHLEAGEEVVVRVLDERLVRLRDGTRSYFGAFMV
notes: also called cell membrane LIGHT; LIGHT-transfectants
Take B7: the binding result in experiment [13] and in experiment [14] was “binds” in each case.
